Source: paper PMC9927573

Columns and labels:
[1] = molecular target: Zika virus envelope glycoprotein E, as displayed on recombinant F2A virus-like particles (Zika virus (strain BeH818995)); test: SDS-PAGE with Western blot; fractions of the two-step chromatographic purification of F2A VLPs (HiTrap Capto Q, then HiScreen Capto Core 700 flow-through); immunoblot of E
[2] = molecular target: Zika virus envelope glycoprotein E, as displayed on recombinant F2A virus-like particles (Zika virus (strain BeH818995)); test: non-reducing SDS-PAGE with Western blot; cell culture medium of transfected 293T cells, 72 and 96 h posttransfection at 37°C, 20 μg of total protein per sample; nonreducing conditions; E detected with monoclonal 4G2 antibody

Zika virus envelope glycoprotein E, as displayed on recombinant F2A virus-like particles (natural protein)
stoichiometry N [1]: 2
stoichiometry N [2]: 2
